Measured values taken from the supplement of paper PMC9170038.

system: MS2 coat protein; assay: apparent KD of MS2 coat protein, switch OFF state (with FMN for OFF switches, without FMN for ON switches); designed switch direction (-1 OFF switch, 1 ON switch): 1; higher = weaker reporter binding; details: FMN input: 0 or 200 uM; Eterna round: R93 (includes R88 designs)
Procedure, shortened: (§1)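 Binding of SNAP-549-labelled MS2 coat protein was measured on designed RNA switches transcribed on-chip from Illumina sequencing clusters. The protein rose in twofold steps from 0.7 or 1.5 nM to 3 µM, with 0.8–1.5 h per step early on and 10–20 min per step later, in 100 mM Tris-HCl pH 7.5, 80 mM KCl, 4 mM MgCl2, without or with constant ligand. Each design's apparent KD is the median of fits to its normalised cluster binding curves.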

| Sequence | apparent KD of MS2 coat protein |
| --- | --- |
| AAAUAAAUGACUAAGGAUAUAUCGGAGAAAACAUGAGGAUCACCCAUGUAAUAAUAAAAAGGGUGAUAGAAGGUAGUCAACAAAC [Mod 1 of Pariah 4 by Hyphema in Round 1] | 63.6 nM |
| GAAAAACAUGAGGAUCACCCAUGUAGUAAUAUGGAAGGAUAUACAAAGACGUAAGUCAAAGUAGAAGGUCUAAAAG [Garnet 100] | 24.7 nM |
| GAGGACAUAGUACAGGAUAUAUGAAUAGUUACAUGAGGAUCACCCAUGUGCAUUUAUAUGCGCACAUAGAAGGGUGGUAGUUAUC [SameState2 Malc#29] | 33.5 nM |

system: MS2 coat protein; assay: apparent KD of MS2 coat protein, switch OFF state (with FMN for OFF switches, without FMN for ON switches); designed switch direction (-1 OFF switch, 1 ON switch): -1; higher = weaker reporter binding; details: FMN input: 0 or 200 uM; Eterna round: R93 (includes R88 designs)
Procedure, shortened: as §1

| Sequence | apparent KD of MS2 coat protein |
| --- | --- |
| AGAAUACAUGAGGAUCACCCAUGUGAGGAUAUAUGAAGAAAAAGAAAAGAAAAGAAACAUAGAAGGCACAAAAG [EX 1 May 16] | 86.7 nM |
| AAAACACAUGAGGAUCACCCAUGUGAGGAUAUGCAUAAAAAAAAAAAAAAAAAAAAAUGCAGAAGGCACAUAAA [jn_camden] | 41.3 nM |
| GAUCAGCUAGGAUAUACAUUAAUCCGAUAUGAGAAGAAAGAACAUGAGGAUCACCCAUGUAGAAGGAGCCAGUA [Ridigeer] | 39.3 nM |
| GGAAAACAUGAGGAUCACCCAUGUAAGGAUAUGCAAAAAAGGAUAUAGAAGGAAAAAAGCAGAAGGUACAAAGG [salish99-ex1-23] | 69.8 nM |
| AAAAAGGCAGGAUAUACAAAAAAAAAAAAAGAGGAGGAGGGACAUGAGGAUCACCCAUGUAGAAGGGCCAAAAA [William Edward Burghardt 'W. E. B.' Du Bois] | 63.7 nM |
| AUUAUGUAAGGAUAUGUACGAACAACAAAACAAAUAACGGUACAGAAGGUACAUGAGGAUCACCCAUGUAUAAA [May 71] | 21.4 nM |
| AAAUGACAUGAGGAUCACCCAUGUCAGGAUAUGACUUGAAAAAAAAAAAAAAAACAUGUCAGAAGGGACAUGGA [Design 51: Sub-opt G] | 22.2 nM |
| AUCUACCUAGGAUAUACAUGAGGAUCACCCAUGUACAGAUACAACUAGGGAAACACACGUAGAAGGAGGUAGAU [JR_Exc003_Sub1207] | 37.3 nM |
| AAAAAUCGAGGAUAUACAUGAGGAUCACCCAUGUAAAAAAAAAAAAAGGGAAAAAAAAGUAGAAGGCGAAAAAA [Sekhemre-Heruhirmaat Intef VII] | 30 nM |
| ACUUAUGAAGGAUAUACUAGCAACAUGCACUCAACACACACACAUGAGGAUCACCCAUGUAGAAGGUCAAACAU [JR_Exc002_Sub1206] | 19.7 nM |
| AAGAAGUUAGGAUAUACAAAAUAAAAGAAAAGAAAGAAAGAACAUGAGGAUCACCCAUGUAGAAGGGACAAGAA [Nubkaure Amenemhat II] | 33.9 nM |
| ACUAACAGAGGAUAUACUAACAAACCUCAAACAUACAUCAAACAUGAGGAUCACCCAUGUAGAAGGCUGAAACU [JR_Exc002_Sub005] | 27 nM |
| CUCAAGUAAGGAUAUGUAAGAAAAGAAGAGAAAGAAAAGAAACAGAAGGUACAUGAGGAUCACCCAUGUAAGAA [EteRNA is fun!] | 28.2 nM |
| AAAAAGUGAGGAUAUACGGUGAGGAGUAGACACAACCUGGCGUAGAAGGCACAUGAGGAUCACCCAUGUCCAAA [EX4 Malc#13] | 47.8 nM |
| AACUGACAUGAGGAUCACCCAUGUCAGGAUAUGACUUGAUAGAAAAAAAAAUAUCAUGUCAGAAGGGACAUGGG [Design 56 :P Sub-opt I] | 12.8 nM |
| AAGAGUAGAGGAUAUACAUGAGGAUCACCCAUGUAAUCCAGAUAAGGAAGCAUGGCGUGUAGAAGGCUGCAUGA [MOD of Nando (MS2 Riboswitches- Exclusion 3)] | 35.2 nM |
| AGAAAACAUGAGGAUCACCCAUGUCAGGAUAUCCUGCGGUGAUACACACCGCGUUGUCGGAGAAGGGACAGGGA [Tiesesmari] | 81.9 nM |
| AAGAAACAUGAGGAUCACCCAUGUGAGGAUAUUCAAAAGAAAAGAAAAGAAAGAAGAAGAAGAAGGCACAAAGG [Neferkamin] | 45.5 nM |
| AGCUAGCGAGGAUAUACGAACAUGUCAAAAGACGUGAAGGGACAUGAGGAUCACCCAUGUAGAAGGCGCUAGCA [JL 74% mod 5] | 144 nM |
| AAAAAACAUGAGGAUCACCCAUGUCAGGAUAUUUCUAAAAAAAAAAAAAAAAAAAAUGAAAGAAGGGACAAAAA [excalibur 6] | 52.5 nM |

| Sequence | apparent KD of MS2 coat protein |
| --- | --- |
| AGUCUGAGAGGAUAUACAUGGGAAAAAAAAGUAAGAUCCCUACAUGAGGAUCACCCAUGUAGAAGGCUCUGACA [Ex2 Design 143: Sub-opt 7] | 17.9 nM |
| AACAGGACAGGAUAUACAUGAGGAUCACCCAUGUAGGAAUUAAGCAGAGUACCAAACAGUAGAAGGGUCAUGGA [Ruby 27] | 44.7 nM |
| AAGAAGCUAGGAUAUACAUGAGGAUCACCCAUGUAAAAGAAAGAGGGAAAAGAGAAAAGUAGAAGGAGCAAGAA [Cleopatra I] | 25.4 nM |
| AAAACGUGAGGAUAUGCACCAAAAAAGGUAAAACGGGUACGACAUGAGGAUCACCCAUGUAGAAGGCACGAAAA [Frodo Flailing 10 - Jieux - Exclusion 2] | 107 nM |
| AAAGGACGAGGAUAUACAUGAGGAUCACCCAUGUAAAAAACAUAACAAAAGAACUUAUGUAGAAGGCGUCCAAA [69%, Moding Meechl, 2] | 403 nM |
| AUCAUGUAAGGAUAUAAAAGAAAAGAAAAGAAAGAAAAGAAUUAGAAGGUACAUGAGGAUCACCCAUGUAAGAA [EteRNA is fun!] | 17.9 nM |
| AGUUGGCGAGGAUAUACAUGAGGAUCACCCAUGUGAGAGAAUAAAGUGAGAAAGAAAAGUAGAAGGCGCUCACA [JL Lego Mod 16] | 45.1 nM |
| GAAAAGUGAGGAUAUUCGGAUAGGAAAACGAAAACCUAUCCGAAGAAGGCACAUGAGGAUCACCCAUGUGAAAG [Mat - Exaclusion 4 - Eli mod - D43] | 30.9 nM |
| GGAAAGUGAGGAUAUGCAUAACAAACACAAACACAAACAAAGCAGAAGGCACAUGAGGAUCACCCAUGUAAACA [Exclusion 4 Willow] | 22.3 nM |
| GAAAAGUCAGGAUAUGCAGAAAAAAAAACGAAAAAAAAACUGCAGAAGGGACAUGAGGAUCACCCAUGUUAAAA [Mat - Exclusion 4 - Mayanna - D127] | 31.2 nM |
| UCCUCACAUGAGGAUCACCCAUGUGAGGAUAUGUACAUCAGGAAAAAAAAACUGAUGUACAGAAGGCACAUGGA [Design 9: Super Stable G-C 2] | 11.2 nM |
| AGGGAACAUGAGGAUCACCCAUGUGAGGAUAUGCUAUGGAAAUAAAAAAUAAAACAUAGCAGAAGGCAUAAAAA [Mat - Exclusion 1 - Eli mod - D39] | 46.1 nM |
| AUAAAUCGAGGAUAUACAUGAGGAUCACCCAUGUAAAAAAAAAAAAAAUCCUCAGGAAGUAGAAGGCGAAAUAA [JR_Exc003_Sub018] | 23.3 nM |
| AAGAAAGGAGGAUAUACAAGAAAGAAAGAAAAGAAAAGAAAACAUGAGGAUCACCCAUGUAGAAGGCCUUAGAA [EteRNA is fun!] | 17.8 nM |
| AAAAAACAUGAGGAUCACCCAUGUAAGGAUAUGCGAAAAUAAAAUAAAAUAAAAUAAAGCAGAAGGUACAAAAG [Mat - Exclusion 1 - Eli mod - D3] | 49.5 nM |
| AAAAAGGUAGGAUAUACAUGAGGAUCACCCAUGUGAAAAGAAAAUAAGAAAAGAAAGUGUAGAAGGACCAAAAA [JL JSci Mod In the Red] | 44.1 nM |
| AAGAAGAUAGGAUAUACAAAAUAAAAGAAAAGAAAGAAAGAACAUGAGGAUCACCCAUGUAGAAGGAUCAAGAA [Sehetepibre Amenemhat I] | 17.7 nM |
| AAGAACUCAGGAUAUACAUGAGGAUCACCCAUGUAAAAGAAAGAAAAGGGAAAGAAAAGUAGAAGGGAGAAGAA [Neferkheperure-waenre Amenhotep IV] | 36.2 nM |
| AAUAACAGAGGAUAUACAAAAAUAAAAGGAAACAAAAGAAAACAUGAGGAUCACCCAUGUAGAAGGCUGAAUAA [Tetraloop BlockHead] | 20.3 nM |
| ACAUGUACAGGAUAUACGUGGAAAAAAAAAAAAAAAAAACUACAUGAGGAUCACCCAUGUAGAAGGGUACAUGA [Ex2 Design 194: Random 12C] | 37 nM |
